Results taken from paper PMC12267440, “Human glycogenins maintain glucose homeostasis by regulating glycogen metabolism” (Nature Communications, 2025).
Positions count from the first letter of the chain named. Names may count otherwise.

B1: Homo sapiens wild-type GYG1 (glycogenin-1) (enzyme, human, UniProt P46976-2 1-333, looked up)
chain: MTDQAFVTLTTNDAYAKGALVLGSSLKQHRTTRRLVVLATPQVSDSMRKVLETVFDEVIMVDVLDSGDSAHLTLMKRPELGVTLTKLHCWSLTQYSKCVFMDADTLVLANIDDLFDREELSAAPDPGWPDCFNSGVFVYQPSVETYNQLLHLASEQGSFDGGDQGILNTFFSSWATTDIRKHLPFIYNLSSISIYSYLPAFKVFGASAKVVHFLGRVKPWNYTYDPKTKSVKSEAHDPNMTHPEFLILWWNIFTTNVLPLLQQFGLVKDTCSYVNVEDVSGAISHLSLGEIPAMAQPFVSSEERKERWEQGQADYMGADSFDNIKRKLDTYLQ
modifications: autoglycosylated (smear on blots; glucose polymer on Y195)
notes: glycogenin-1 (GYG1), Homo sapiens, UniProt P46976-2; also called GYG1 (WT); source: Sf9, co-infected with GS baculovirus, purified with GS (Ni-NTA, Superose 6)
B2: Homo sapiens GYG1 Y195F mutant (enzyme, human, UniProt P46976-2 1-333, looked up)
chain: B1 chain with Y195F
notes: glycogenin-1 (GYG1), Homo sapiens, UniProt P46976-2, autoglycosylation site mutated; source: Sf9, co-infected with GS baculovirus, purified with GS (Ni-NTA, Superose 6)
B3: Homo sapiens glycogen synthase GS1 (GYS1), amino acids 1-737, N-terminal hexahistidine tag (enzyme, human, UniProt P13807 1-737, looked up)
chain: MPLNRTLSMSSLPGLEDWEDEFDLENAVLFEVAWEVANKVGGIYTVLQTKAKVTGDEWGDNYFLVGPYTEQGVRTQVELLEAPTPALKRTLDSMNSKGCKVYFGRWLIEGGPLVVLLDVGASAWALERWKGELWDTCNIGVPWYDREANDAVLFGFLTTWFLGEFLAQSEEKPHVVAHFHEWLAGVGLCLCRARRLPVATIFTTHATLLGRYLCAGAVDFYNNLENFNVDKEAGERQIYHRYCMERAAAHCAHVFTTVSQITAIEAQHLLKRKPDIVTPNGLNVKKFSAMHEFQNLHAQSKARIQEFVRGHFYGHLDFNLDKTLYFFIAGRYEFSNKGADVFLEALARLNYLLRVNGSEQTVVAFFIMPARTNNFNVETLKGQAVRKQLWDTANTVKEKFGRKLYESLLVGSLPDMNKMLDKEDFTMMKRAIFATQRQSFPPVCTHNMLDDSSDPILTTIRRIGLFNSSADRVKVIFHPEFLSSTSPLLPVDYEEFVRGCHLGVFPSYYEPWGYTPAECTVMGIPSISTNLSGFGCFMEEHIADPSAYGIYILDRRFRSLDDSCSQLTSFLYSFCQQSRRQRIIQRNRTERLSDLLDWKYLGRYYMSARHMALSKAFPEHFTYEPNEADAAQGYRYPRPASVPPSPSLSRHSSPHQSEDEEDPRNGPLEEDGERYDEDEEAAKDRRNIRAPEWPRRASCTSSTSGSKRNSVDTATSSSLSTPSEPLSPTSSLGEERN
notes: glycogen synthase GS1 (GYS1), Homo sapiens, UniProt P13807, amino acids 1-737; No cleavage of the His tag is described; the complexes were captured on Ni-NTA by it; The cryo-EM complex is called heterooctameric (D2 symmetry imposed); source: Sf9, co-infected with a GYG baculovirus, purified (Ni-NTA, Superose 6); not shown: His6 (PreScission protease-cleavable), N-terminal, kept
B4: Homo sapiens wild-type GYG2 (glycogenin-2) (enzyme, human, UniProt O15488-1 1-501, looked up)
chain: MSETEFHHGAQAGLELLRSSNSPTSASQSAGMTVTDQAFVTLATNDIYCQGALVLGQSLRRHRLTRKLVVLITPQVSSLLRVILSKVFDEVIEVNLIDSADYIHLAFLKRPELGLTLTKLHCWTLTHYSKCVFLDADTLVLSNVDELFDRGEFSAAPDPGWPDCFNSGVFVFQPSLHTHKLLLQHAMEHGSFDGADQGLLNSFFRNWSTTDIHKHLPFIYNLSSNTMYTYSPAFKQFGSSAKVVHFLGSMKPWNYKYNPQSGSVLEQGSASSSQHQAAFLHLWWTVYQNNVLPLYKSVQAGEARASPGHTLCHSDVGGPCADSASGVGEPCENSTPSAGVPCANSPLGSNQPAQGLPEPTQIVDETLSLPEGRRSEDMIACPETETPAVITCDPLSQPSPQPADFTETETILQPANKVESVSSEETFEPSQELPAEALRDPSLQDALEVDLAVSVSQISIEEKVKELSPEEERRKWEEGRIDYMGKDAFARIQEKLDRFLQ
notes: glycogenin-2 (GYG2), Homo sapiens, UniProt O15488-1, full-length; Two vectors are named (MultiBac pACEBac1 with full-length GYG2; Bac-to-Bac with wild-type GYG2 O15488-1); source: Sf9, co-infected with GS baculovirus, purified with GS (Ni-NTA, Superose 6); also isolated alone
B5: Homo sapiens GYG2 Y228F mutant (enzyme, human, UniProt O15488-1 1-501, looked up)
chain: B4 chain with Y228F
notes: glycogenin-2 (GYG2), Homo sapiens, UniProt O15488-1, putative autoglycosylation site mutated; also called GYG2 Y229F mutant (methods); source: baculovirus (Bac-to-Bac), purified with GS

Legend:
[1] = target: B3; assay: SEC; co-expressed in insect cells, captured on Ni-NTA by the His6 tag of GS, then Superose 6 16/60; SDS-PAGE and Western blot of peak fractions; conditions: both partners purified
[2] = target: the molecule itself; assay: cryo-EM structure; purified GS•GYG2 complex from SEC peak fractions at ~2 mg/mL; Titan Krios 300 keV; D2 symmetry imposed
[3] = target: T1, Homo sapiens glycogen synthase GS2 (GYS2), amino acids 1-703 (human, UniProt P54840 1-703); assay: SEC; co-expressed in insect cells, captured on Ni-NTA by the His6 tag of GS, then Superose 6 16/60; SDS-PAGE and Western blot of peak fractions; conditions: both partners purified
T1 construct: glycogen synthase GS2 (GYS2), Homo sapiens, UniProt P54840, amino acids 1-703; The methods say that the His tag was put at the N-terminus of 'GS' without telling GS1 and GS2 apart; source: baculovirus (Bac-to-Bac), purified with GYG2
T1 sequence (looked up): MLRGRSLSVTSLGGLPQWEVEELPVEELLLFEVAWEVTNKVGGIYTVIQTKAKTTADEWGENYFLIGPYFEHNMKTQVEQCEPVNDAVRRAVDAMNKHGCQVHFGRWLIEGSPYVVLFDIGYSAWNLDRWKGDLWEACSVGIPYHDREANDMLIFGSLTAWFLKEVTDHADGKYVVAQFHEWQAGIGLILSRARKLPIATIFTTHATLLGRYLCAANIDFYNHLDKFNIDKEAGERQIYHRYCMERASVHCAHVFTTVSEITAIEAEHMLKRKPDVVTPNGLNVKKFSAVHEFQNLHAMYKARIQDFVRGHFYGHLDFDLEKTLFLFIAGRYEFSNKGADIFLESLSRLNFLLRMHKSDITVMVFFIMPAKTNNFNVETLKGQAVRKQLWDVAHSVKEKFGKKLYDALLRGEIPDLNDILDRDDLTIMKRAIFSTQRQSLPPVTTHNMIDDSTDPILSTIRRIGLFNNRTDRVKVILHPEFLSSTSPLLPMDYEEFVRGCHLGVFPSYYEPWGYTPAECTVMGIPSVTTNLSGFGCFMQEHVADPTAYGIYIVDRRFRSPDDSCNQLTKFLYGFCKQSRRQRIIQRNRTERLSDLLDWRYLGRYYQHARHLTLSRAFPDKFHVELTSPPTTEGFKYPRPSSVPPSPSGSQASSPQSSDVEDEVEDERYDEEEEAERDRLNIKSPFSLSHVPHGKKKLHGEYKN

| Binder | binding result [1] | further results |
| --- | --- | --- |
| B1 | binds | – |
| B2 | binds | – |
| B3 | – | binding result [2]: binds |
| B4 | – | binding result [3]: binds |
| B5 | binds | – |
